Measured values from the DeepSol protein solubility set.

Experiment: soluble on expression in E. coli; label from the status in PepcDB or PDB records

Sequence | soluble on expression in E. coli
EQELSYFAVFRRVYVQRDEVRQIASIVQRGERDHTFRVGSLIFHTIGQLLPQQMQAFHSPKALFPVGYEASRLYWSTRYANRRCRYLCSIEEKDGRPVFVIRIVEQGHEDLVLSDISPKGVWDKILEPVACVRKKSEMLQLFPAYLKGEDLFGLTVSAVARIAE | not soluble
LLQLNIQNFAIVRSLDIDWQSGMTTITGETGAGKSIAIDALGLCLGDRATTNVVRPNCKKADLAATFEIKKNKMARAWLKQHELVSEHDSECILRRVISAEGRSKSYINGSQVPLVQLKEIGQLLINIHGQHDHQLIVKANQQCRLLDNYANHTPLLSAVKHYAQQWNKLNKELEMLQQSKQQREAEQQLIQYQVTELDEFSLQ | not soluble
MAHHHHHHMLSTSQAFLASLRYRRPYWMLFLKGADNWKIYTVIQQPDHQRTEMLYQAWLGGLDRPYVRPKCMAHQPVWLSKKRHLLQKARLEGPETSVEKYVLEWYKKFHSFQGTDRPTAEDLHTAFDLVERPLDLSYACQLLNQCRNHYYIRLSDDSFEIFLEACLRVDRRDCAIYALEHAEELGFWHVSDNCRRYLAGEQTWYKRSPVDLLYYPLEENAERNTAVTSGTAASAVAASDKVKGDEKVEGAPRTSATTSATAASAENEGEAEVTDDEIARLQAELEALEREIGSEGADGTDKD | not soluble
MAEVKEKRHEELGLSDEQVLEMFRTMLLARKIDERMWLLNRAGKIPFVISCQGQEAAQVGAAFALDREKDYALPYYRDMGVVLAFGMTAKELMLSGFAKAGDPNSGGRQMPGHFGQKKNRIVTGSSPVTTQVPHAVGIALAGKMEKKDLVTFVTFGEGSSNQGDFHEGANFAGVHKLPVIFMCENNKYAISIPVEKQLACKNVSDRAIGYGMPGYTVDGNDPLAVYKAVKEAADRGRRGEGPTLIETVSYRLTAHSSDDDDRVYRDKEEVEEAKKNDSIVTFAAYLKEVGVLTEESEKQMLDEIMHIVNEATEYAENAPYAAPEDALKHVYAE | not soluble
MGSDKIHHHHHHMPNQVSKVNDLKHFFLHLIESGKLSHAYLFLGEDPREIHNLIAAISSRILREKTGDDVFENANLIEVKIPEGKKTLSVDQMRTVRDIFAEKSEHPQIAVIDDADKMTDSAANSILKFIEEPYDRQYIFLQARNRNRVLPTILSRVQLINIPKQKKSEISEQLVDKGIQEDEAIFISRISKSISQADDLLLDGFAINLKRSITEWLDEIFNRQEKSFAFVQSDLLNFVDTNEHQNIFNLALSSELSMRLEKAPNSVLADILDRWLVIYQRSRFTVSWQTMLESFTLEALRMVNGTEKFSNK | not soluble
MSLQVWTKLFAKSPFKPLIKHAEVVVETVETLEKALEAWAKGDYEKMKELAVEVDRLEDVADRIKMELRESITAKLLMPVQRSDVLEYLHMQDKIADAAEDTAKWLLVRDRGNVPEDIKDIILKMGKESIRAAKLVYEAIKQMDMVVESGFSENEIKKEYDLIRQIEEVENKIDGLDTKLMRLVLNANISWTEGIYLLNIGRTISNISDKAKDAAERIRIMMSKEGHHHHHH | soluble
MNALSGLQTHEDSTCCNRFCRPDERSASGNSTLLRFGGFFADQTYLQVTRLMQRIHYLHQRLVIDGFVRSEEDGGVFLAFGLEHHHHHH | not soluble
MSFDIAKYPTLALVDSTQELRLLPKESLPKLCDELRRYLLDSVSRSSGHFASGLGTVELTVALHYVYNTPFDQLIWDVGHQAYPHKILTGRRDKIGTIRQKGGLHPFPWRGESEYDVLSVGHSSTSISAGIGIAVAAEKEGKNRRTVCVIGDGAITAGMAFEAMNHAGDIRPDMLVVLNDNEMSISENVGALNNHLAQLLSGKLYSSLREGGKKVFSGVPPIKELLKRTEEHIKGMVVPGTLFEELGFNYIGPVDGHDVLGLITTLKNMRDLKGPQFLHIMTKKGRGYEPAEKDPITFHAVPKFDPSSGCLPKSSGGLPSYSKIFGDWLCETAAKDNKLMAITPAMREGSGMVEFSRKFPDRYFDVAIAEQHAVTFAAGLAIGGYKPIVAIYSTFLQRAYDQVLHDVAIQKLPVLFAIDRAGIVGADGQTHQGAFDLSYLRCIPEMVIMTPSDENECRQMLYTGYHYNDGPSAVRYPRGNAVGVELTPLEKLPIGKGIVKRRGEKLAILNFGTLMPEAAKVAESLNATLVDMRFVKPLDETLILEMAASHEALVTVEENAIMGGAGSGVNEVLMAHRKPVPVLNIGLPDFFIPQGTQEEMRAELGLDAAGMEAKIKAWLA | not soluble
MAHHHHHHMEPSTLPYITRDVATEPPTTIAIVSCGGQPPELSGKDETMFAVTEDCVEPTKGWINREGKPLLTVCFMHSFGKCVGRTSSNPATCFQIHIKANVLNALRKHYTNPTRRFFTRTVKAMLSPELRRLLCMRAHKEFKVQYLEYRVSDIFPSTGLLQYEAAYRRWLFSDDTNAEHAGTITVLQCLQFSMTGSCDSSTDCPYIHADLKKAQARDPMLARALRDVSDANQGLPTVSIRVPELLPAGHSSTICPADATYATLTDGANLQSGMPSDPARDFTKVPAFTLVYGEGESGGRCVPLQMHQRESSSSSAGGHANSTYPLSHVPFINQDDPASEMTAAKSQPTSGKNEKASVSGKSGSGWVNNSNEGAGSINNHTGSCGSGTD | not soluble
MGSDKIHHHHHHMKVQYSFEREFEELMSDLLSKYGYEMFQMDGLGDQLDVVKFTEDFVRRGIIESTIDANANVRVTNISTYFIEISKPHTYLYSLYRIWQKMKEMFGKGVADEFVEAQINGAVYLHDRHHAALMPYCFAYTLKPIVEKGLPFIKTIKSEPAKHLSTFIQHVIQFVMFASNQSSGAVGLPDFFVWMWYFVKKDLKEGIIPRDKLDWYIEQHFQILTYSLNQPIRTTQSPYTNFTYLDRNYIKAIFEGERYPDGSLITDHVEDIIALQKHYWEWVSRERERQMFTFPVLTASLLYKDGKFLDEDSARFINKINMKWQDTNWYISDSIDAVASCCRLTSSTQTLKKFSLSSEEEEKLKGRMNSIGGSDLNIGSFKVITVNLPRIALESGGDREKYLQILRHRVQLIKKALAAVREIIKERISEGLLPLYENGLMLLNRQYGTIGVTGVWESASIMGLTTEDIDGLKYTEEGEVFVDNVLDTIREEAEKGYHEYGFTFNIEQVPAEKAAVTLAQKDRFLFGEKQPFEIYSNQWVPLMANTDVLNRIRYSGKWDKKVSGGAILHINLGESFKTEEESFNMVKMIADMGVMYFAFNTKISVCEDGHAFYGERCPVCGKAKVDEYMRIVGYLVPVSAFNKERREIEYPRRQFYDSLTIRR | not soluble
MRLFIAEKPSLARAIADVLPKPHRKGDGFIECGNGQVVTWCIGHLLEQAQPDAYDSRYARWNLADLPIVPEKWQLQPRPSVTKQLNVIKRFLHEASEIVHAGDPDREGQLLVDEVLDYLQLAPEKRQQVQRCLINDLNPQAVERAIDRLRSNSEFVPLCVSALARARADWLYGINMTRAYTILGRNAGYQGVLSVGRVQTPVLGLVVRRDEEIENFVAKDFFEVKAHIVTPADERFTAIWQPSEACEPYQDEEGRLLHRPLAEHVVNRISGQPAIVTSYNDKRESESAPLPFSLSALQIEAAKRFGLSAQNVLDICQKLYETHKLITYPRSDCRYLPEEHFAGRHAVMNAISVHAPDLLPQPVVDPDIRNRCWDDKKVDAHHAIIPTARSSAINLTENEAKVYNLIARQYLMQFCPDAVFRKCVIELDIAKGKFVAKARFLAEAGWRTLLGSKERDEENDGTPLPVVAKGDELLCEKGEVVERQTQPPRHFTDATLLSAMTGIARFVQDKDLKKILRATDGLGTEATRAGIIELLFKRGFLTKKGRYIHSTDAGKALFHSLPEMATRPDMTAHWESVLTQISEKQCRYQDFMQPLVGTLYQLIDQAKRTPVRQFRGIVAPGSGGSADKKKAAPRKRSAKKSPPADEVGSGAIAHHHHHH | soluble
MKIVFLECSVELVPRSLWSHPQVLKSARRYGIEPGDLLLDKSLHYNAMAELPAKWKRGRPDILHVALLTTTDSPLYNEGLLRIYFQVYDGRLFEVGTGVRVPKNYERFRGLVAQLLKTERVPPGEGEALIRLHSRSLAEFVEREGRFILMWEKGSPTTTTYVAARALSTGLPIGVGCFPRGEFKRSTLRKASEAYSIMGGAPLKTWGVASRIVYALERLKSPFTLEHHHHHH | soluble
MNGVYDVGGTDGLGPINRPADEPVFRAEWEKVAFAMFPATFRAGFMGLDEFRFGIEQMNPAEYLESPYYWHWIRTYIHHGVRTGKIDLEELERRTQYYRENPDAPLPEHEQKPELIEFVNQAVYGGLPASREVDRPPKFKEGDVVRFSTASPKGHARRARYVRGKTGTVVKHHGAYIYPDTAGNGLGECPEHLYTVRFTAQELWGPEGDPNSSVYYDCWEPYIELVDT | soluble
MSLQTWIWYPGDYEIWLGNRMNNRRTERGAFFPPFWKTDSHYVVVEFSKKLDLAEPEEIFIAAEGKYNVKLDGKLQFGMPSTLKLPAGKHSLNIKVWNQSTPPTIYVKGKTVNTDKTWKVTYEDKEWIDESGKASDTSATVYMDAGCWNFDGATQLPSKFSLARKPMKAVSSTPRKEGVLYDFGKETFGYITLKEVKGKGTIHIYYGESPEEALDTEYCETLDKLLAEPGQITDLAIRNTRKLYDEYTLDNSKAFRYVYVTCDPGVTIQDVSMQYEYLPEEYRGSFKCNDEELNRIWEVGAYTMHLTTREFFIDGIKRDRWVWSGDAIQSYLMNYYLFFDNETVKRTIWLLRGKDPVTSHSNTIMDYTFYWFLSIYDYYMYSGDKDFVTQLYPRMQSMMDYVLGRTNANGMVEGMTGDWVFVDWADGYLDKKGELSFEQVLFCKSLETMALCAGLAGNTADKTKYEKLASALRSKLEPAFWNEQKQAMVHNRVQGKQSESVTRYANMFSVFFNYLNADKQQTIKHSVLQNDSILKITTPYMRFYELEALCALGEQESVMKEMKAYWGGMLKEGATSFWEKYNPEETGTRHLAMYGRPYGKSLCHAWGASPIYLLGKYYLGVKPTKPGYEEYSVTPCLGGLKWMEGTVPTPYGNIHIYMDKKEIRIKSDGGKGVLNIPTRKGMKAMTIEPGEEQVFKYEGHHHHHH | soluble
MGHHHHHHSHMKPLIWTWSDVEGQRPALLICTAAAGPTQGVKGYGKPFEPRSVKNIHSTPAYPDATMHRQLLAPVEGRMAETLNQKLHVANVLEDDPGYLPHVYSEEGECGGAPSLSSLASLEQELQPDLLDSLGSKATPFEEIYSESGVPS | not soluble
MGSDKIHHHHHHMNIQQLRYVVAIANSGTFREAAAKLFVSQPSLSVAVRDLETELGFQIFTRTTTGAVLTNQGMTFYENALEVVKSFDSFEKQFSQSEATEQEFSIASQHYDFLPPLITAFSKCNDNFSYFRIFESTTIRILDEVAQGNSEIGIIYINSQNKKGLLQRLDKLGLEFVELIPFKTHIYLGKDHPLASKTSLIMTDLEGLPTVRFTQDRDDYRYYSENFVEVLDSSVTYNVTDRATLNGILERTQAYATGSGFLDSRSVNGITVIPLEDHLDNQMIYIKRKDRNLSQMALKFVAVMEEYFKGFNS | not soluble
MISSSLPSSNAASSSEGRITQAKDVQGFSQRSASGQTPLNQSAALSEQAVPSFRLAAQTFSSEERKEATTATTEENAAVDTTGMNVLLSATTPTETPDLAAQAQTLTQGMLNMAEKSVASFNKVNPLEIKGEAKTTSPAQANALLNTSPQQQDIQTSQTTSANARVNTSAVDFQALLNQPAQGQATTAPLNVQTSAPSAQAVSAATVAHAHTQGSEWAAVKVDTSAGKWGEQMMQVLHDRVTLQAQQSVQEAKIRLDPPDLGKLDLLVRVEGDRLSVQINANTAATREALMQVSERLRTELQEQNFVHVDVNVGADQGQERHQQQMNDEDTTIFAARESSAFQSNTTTNYSEHWLNTQA | not soluble
